In article PMC8432736:
pKd: −log10 of the molar value.

Molecular target: Recombinant active ACE2-Fc (ACRO biosystems, AC2-H5257) (human) (UniProt Q9BYF1)
Assay: SPR

UniProt Q9BYF1, sequence (Q9BYF1 18-740): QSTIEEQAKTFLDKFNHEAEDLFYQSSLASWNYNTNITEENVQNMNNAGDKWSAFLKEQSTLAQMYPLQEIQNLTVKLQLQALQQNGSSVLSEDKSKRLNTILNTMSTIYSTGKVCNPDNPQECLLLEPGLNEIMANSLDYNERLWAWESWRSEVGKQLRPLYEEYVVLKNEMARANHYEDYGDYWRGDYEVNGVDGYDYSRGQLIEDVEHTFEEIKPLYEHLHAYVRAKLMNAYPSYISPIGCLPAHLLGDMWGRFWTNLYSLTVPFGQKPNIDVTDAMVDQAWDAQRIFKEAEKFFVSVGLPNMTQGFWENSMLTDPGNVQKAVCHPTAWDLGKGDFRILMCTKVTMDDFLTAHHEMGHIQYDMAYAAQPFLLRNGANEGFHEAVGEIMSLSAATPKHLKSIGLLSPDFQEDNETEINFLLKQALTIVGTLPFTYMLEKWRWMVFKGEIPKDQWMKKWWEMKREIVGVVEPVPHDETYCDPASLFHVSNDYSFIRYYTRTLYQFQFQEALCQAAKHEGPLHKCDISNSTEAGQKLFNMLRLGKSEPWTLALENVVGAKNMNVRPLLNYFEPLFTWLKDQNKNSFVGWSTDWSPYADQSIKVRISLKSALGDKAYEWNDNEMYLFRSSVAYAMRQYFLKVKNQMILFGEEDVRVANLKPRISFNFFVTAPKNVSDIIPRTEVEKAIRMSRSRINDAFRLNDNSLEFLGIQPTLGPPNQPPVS

## Angiotensin II (peptide)
  pKd: 6.93
